Source: US20140219992
Residue numbers refer to the chain shown, from its start. Numbers in names are those of the source.

T1: fluorogenic peptide substrate IX, Mca-K-P-L-G-L-Dpa-A-R-NH2
T1 chain: KPLGLAR

B1: wild-type human matrix metalloprotease 1 (hMMP-1), purified and trypsin-activated (protein)
chain: FVLTEGNPRWEQTHLTYRIENYTPDLPRADVDHAIEKAFQLWSNVTPLTFTKVSEGQADIMISFVRGDHRDNSPFDGPGGNLAHAFQPGPGIGGDAHFDEDERWTNNFREYNLHRVAAHELGHSLGLSHSTDIGALMYPSYTFSGDVQLAQDDIDGIQAIYGRSQNPVQPIGPQTPKACDSKLTFDAITTIRGEVMFFKDRFYMRTNPFYPEVELNFISVFWPQLPNGLEAAYEFADRDEVRFFKGNKYWAVQGQNVLHGYPKDIYSSFGFPRTVKHIDAALSEENTGKTYFFVANKYWRYDEYKRSMDPGYPKMIAHDFPGIGHKVDAVFMKDGFFYFFHGTRQYKFDPKTKRILTLQKANSWFNCRKN
B2: MMP-1 mutant GVSK (G159V/S208K), purified and trypsin-activated (protein)
chain: B1 chain with G79V, S128K

How the values were obtained:
[1] = biological target: T1, fluorogenic peptide substrate IX, …
[2] = biological target: serum-derived protein (Zucker rat)

Row | Protein | KM (µM), enzyme kinetics at 1 mM Ca^2+, 37° C. [1] [µM] | KM (µM), enzyme kinetics at 10 mM Ca^2+, 37° C. [1] [µM] | enzymatic activity against the fluorogenic peptide substrate after incubation in 10% Zucker rat serum, 1 mM Ca^2+, 25° C. [2] | enzymatic activity lost after 15 minutes in 10% Zucker rat serum, 1 mM Ca^2+, 25° C. [2] | enzymatic activity remaining after 30 minutes in 10% Zucker rat serum, 1 mM Ca^2+, 25° C. [2] | enzymatic activity remaining after 2 hours in 10% Zucker rat serum, 1 mM Ca^2+, 25° C. [2] | enzymatic activity remaining after 2 hours in 10% Zucker rat serum, 10 mM Ca^2+, 25° C. [2]
1 | B1 | 20.6 | 21.1 | The activity of MMP-1 in 1 mM Ca^2+ buffer was unaffected by incubation with serum over the course of the study |  |  |  | 
2 | B2 | 16.5 | 11 |  | After 15 minutes of serum incubation, one-third of the activity of GVSK in 1 mM Ca^2+ was lost | less than 50% of activity remained after 30 minutes | only approximately 17% of the activity of GVSK in 1 mM Ca^2+ remained | approximately 74% of the original activity remaining by the 2 hour time point
